Reference: the RNAGym collection of RNA variant scans (doi:10.1073/pnas.2313332121)

B1: TPR t1 (parent)
chain: GACCAAUCUGCCCUCAGAGCUCGAGAACAUCUUCGGAUGCAGAGGAGGCAGGCUUCGGUGGCGCGAUAGCGCCAACGUCCUCAACCUCCAAUGCAUCCCACCACAUGAUGAUGCCUGAAGAGCCUUGGUUUUUUG

Variants of: B1
Experiment: polymerase ribozyme fitness, log enrichment relative to wild type (log ratio); higher = more active; in vitro selection for triplet polymerase activity
Procedure, shortened: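 Libraries of mutants in each subunit of a heterodimeric triplet polymerase ribozyme were generated by PCR and transcribed. In triplicate, each went through one in vitro selection round: annealing with biotinylated primer, partner subunit and triplets; frozen incubation at −7 °C; gel excision of extended constructs; streptavidin-bead capture; RT-PCR. Fitness, taken from Illumina sequencing of input and output libraries, is the logarithm of a genotype's enrichment over wild-type enrichment, averaged across replicates with inverse-variance weights. The logarithm is base 2, and genotypes needed ≥10 input reads and ≥1 read per output to be kept.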

Row | Variant | polymerase ribozyme fitness (log ratio)
1 | G48A G110C | -4.33
2 | U59G C85U G113A | -1.67
3 | C3A U32A C64G C99A | -7.73
4 | U9G A27U G39U A46U | -4
5 | A29U G58A U106A | -1.28
6 | U9G C89U | 0.304
7 | G61U G107A | -5.22
8 | A16U C73A | -2.64
9 | C11A G17C U55C C88U U131G | -5.05
10 | C20G C115U | -4.25
11 | C70U U78C C80A C97U U129A | -5.63
12 | A29G G48U G57C C73U | -1.71
13 | C56G C70A A83G U96C G120A | -4.37
14 | G39C G52A | -1.32
15 | C64U C76A G120U | -5.9
16 | A27G C64U | -2.01
17 | G69C C85A | -2.84
18 | C13A A18U C53U | -3.95
19 | C53U C72U C79A C85U C88U | -2.53
20 | G71C G77C C114G U116G | -5.32
21 | C72A G135C | -0.133
22 | C12U C13U C97A C123U C124A | -2.92
23 | C88A A111U | -4.33
24 | U92A G93C | -2.69

Row | Variant | polymerase ribozyme fitness (log ratio)
25 | C11G C31A A41U C70G G113U | -5.92
26 | G69U C73G A105U | -4.07
27 | C12G C49G C70A C97U | -1.84
28 | C56G C89A | -2.22
29 | C49G C124G | 1.58
30 | G36U C73U G107C | -6.17
31 | C11G G39A G60C | -0.748
32 | C40U A90G C102G | -4.16
33 | C72A G93A | -0.667
34 | C53G C70U | -1.16
35 | A27U C76U | -3.39
36 | C56U C102A | -1.94
37 | A37G C49G C64G A111U U126G | -6.45
38 | C4A C15U G51A C82G C123U | -5.31
39 | U33G U55A | -4.84
40 | G69A A74G | -5.42
41 | G42U G58C U87C G120A C123G U125A | 0.38
42 | C8G U14G G61C A66C | -2.35
43 | C34A C72U | -2.58
44 | C53A A84U U125A | -1.27
45 | G63U G128A | -3.29
46 | A74U U78C G120C | 0.366
47 | C31U G61U A91C | -5.51
48 | G63A G120A | -0.19

Row | Variant | polymerase ribozyme fitness (log ratio)
49 | A111U G113C C115G | -7.15
50 | G35U G77C C123G | -5.04
51 | A18U C79U C101G | -4.83
52 | C62A C82A C85U | -2.3
53 | C15G U96G G120A | -1.53
54 | G61U A118G | 0.1
55 | C73G A84U U112C | 0.269
56 | U87A C89U C123A C124G | 1.56
57 | G10U C22G A50C A118G | -5.56
58 | C4G C72A C86U U112C G122A G135C | -0.311
59 | G57A C94G | -2.36
60 | A68G U125A | -3.61
61 | C11U C40G G61C A119U | -2.64
62 | G61U C97A C123A | -4.17
63 | A46U C79U C82U G110U G135A | -3.2
64 | C13U A108U | -4.78
65 | C11U C12A U96C | -2.18
66 | U7A G93C | -0.696
67 | C13U U55G C72U | -0.221
68 | G48U G52U C98U G117U | -6.54
69 | C31A C73G | -5.21
70 | A18C G48A C94G | -3.96
71 | A41U C124G | 0.981
72 | C56U U81G C97U | -1.35

Row | Variant | polymerase ribozyme fitness (log ratio)
73 | C4A U130G | -1.85
74 | C115G G128U | -5
75 | G17A C53A C104U U133A | -2.46
76 | A43U G48A G71U U112A | -1.51
77 | G36U U112G | -1.32
78 | C12G A83U C104A U125G | -2.42
79 | G93A G128C | -2.72
80 | C11G U55C C62G A83U A95U | -1.47
81 | C13A U112G | -1.5
82 | G10A C12G C22G C104G | -5.13
83 | C12G C15A A108G A111C | -4.53
84 | C40G C53U G127C | -1.33
85 | G93A C123G | 0.42
86 | A6C C11U C49A C101A | -2.17
87 | C11G C20A C53G U132A | -2.13
88 | A37G A83C C88G U130G | -4.95
89 | A18C C53U C70U | -4.83
90 | G60C U81A A83C | -3.92
91 | C56U A95G | 0.263
92 | C11G G69A C70A | -4.98
93 | C22A G48A G57U C70A A83G A91U C115A | -7.04
94 | C56U G61A U112G A121U | -6.37
95 | C13G C20U G48A | -3.29
96 | A5U U38G A74G | -1.15

Row | Variant | polymerase ribozyme fitness (log ratio)
97 | A2G A27U C79G C104U | -4.76
98 | C8A U129A | -0.0105
99 | U21A C76U | -0.123
100 | A18C A37U G48A | -3.12
101 | G10U C20U U32A A84U C104A | -3.8
102 | C8A C20U G113U A118U | -0.316
103 | U116G G128U | -4.55
104 | U131C U132A | -0.543
105 | C11U G42A | -2.48
106 | C49U C82U | -0.598
107 | G69C G120U C123G | -0.319
108 | U30A G48C G57A C124G | -4.73
109 | C20G G71C | -5.08
110 | G61A G127C | -0.956
111 | G35A G69U C101G | -2.83
112 | G10U A16C G44C C70U A111C U125G | -7.14
113 | C20U G45U | -2.33
114 | C3G G47U G48C C82G C123U | -1.92
115 | C56G G93A C115A C123U G128U | -4.6
116 | A18C C72U G113C | -3.97
117 | A5G G60A | -0.271
118 | A90C C104A | -3.78
119 | U9A U30C G44A G57U G60A | -4.18
120 | G44A C72A G117A | -2.9

Row | Variant | polymerase ribozyme fitness (log ratio)
121 | A6U C53U G69U G128C | -0.945
122 | A41C U81A U133G | -2.53
123 | G42U G51C | -6.75
124 | C28A A43U | -5.18
125 | G23C G69A | -7.97
126 | C11U A27U G71U C101G C104U A111C | -6.17
127 | G44U G71A U130G | -3.31
128 | G39U U92C C115U A119U | -3.57
129 | A41G G61U C94U | -0.449
130 | A2C C49G U67G A84G G110U | -5.64
131 | G17A C80U | -3.53
132 | G44U G63C C72U A111U | -5.44
133 | U55C C82A C124G | 1.37
134 | G48C A74C | -0.603
135 | C40A G48C G61A | -0.933
136 | C40A U55A G69C C73A A84C G120A | -1.3
137 | C3U A6C U55C | -1.74
138 | G36U U78G A105C | -3.65
139 | C62U C72U | -1.03
140 | G25C G35A G44C C114G | -5.95
141 | C13U A27U G36A G61A C79A | -5.13
142 | C22A C49U | -6.04
143 | C49A C53G C73U A74G A100U | -2.75
144 | C11G U129G | -1.77

Row | Variant | polymerase ribozyme fitness (log ratio)
145 | U78C A83U C115A | -0.234
146 | A2G G19U G120U | -2.98
147 | G48U U54G U129A | -1.88
148 | G52U A66U | -1.95
149 | A43C C70U C82A A91U G93U U96C C124G | -3.67
150 | G23A G51A A111G | -6
151 | A46C C73A | -1.64
152 | G10A C73G | -0.355
153 | G51U C53G C124A U133A U134G | -1.64
154 | U32A A46C C64U U78G | -4.98
155 | A37C G44A A46C G47U U59C | -6.19
156 | C49A G69C | -1.8
157 | G71C G110A | -2.2
158 | C15U C98U | -2.28
159 | C8U C15A A66U A118U A121C | -0.152
160 | A6U C98A | -3.74
161 | G42C C56A G122A | -2.92
162 | C73U A103C | -3.82
163 | G120U | 0.195
164 | C3U A83U | -0.257
165 | U59A C70U C102A A105U A111G G128A U129A | -5.83
166 | U7A C104G | -6.47
167 | A2G U9G G10U A27C C56G | -3.86
